Measured values: the supplement of paper PMC9170038

Tested on: K4 kissing-loop RNA reporter
Assay: apparent KD of K4 kissing-loop reporter; higher = weaker reporter binding
Conditions: Eterna round: R107
Protocol: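 RNA-MaP round R107: designed RNA switches with theophylline, tryptophan, arginine or FMN aptamers are transcribed on-chip within common flanks. They are titrated with a labelled K4 kissing-loop RNA reporter in RNA-MaP buffer (100 mM Tris pH 7.5, 80 mM KCl, 4 mM MgCl2), without ligand or with the indicated ligand. Median apparent KD per design.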

[1] = input ligand: theophylline 20 uM
[2] = input ligand: tryptophan 2.4 mM
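Note: bound reporter read as fluorescence of individual clusters on recovered sequencing chips by microscopy, with normalized cluster intensities fitted with a binding model.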

Sequence | apparent KD of K4 kissing-loop reporter (input ligand: FMN 200 uM) [nM] | apparent KD of K4 kissing-loop reporter (input ligand: arginine 13.2 mM) [nM] | apparent KD of K4 kissing-loop reporter (input ligand: none) [nM] | apparent KD of K4 kissing-loop reporter [1] [nM] | apparent KD of K4 kissing-loop reporter [2] [nM]
GGAGGGAUCUCGGCCGCCACUCGUGGGAAAUGGGCCUCAGGGAUAUAGUGAUGUUAUGUAAAGAAGAGGACCGGGAGAAGGAAGG [ExTryptoB.Dg] | 319 | 269 | 330 | 366 | 240
ACGUCACGUAUACUCGUGGUUUCGAUCGAUACCAGUAGCGAGAGUUACCCUUGGCAGCGACAUGAGUGAUGUUCAUGUGCGAAGA [KL-XTheo-A3 #analogue] | 118 | 106 | 112 | 104 | 111
AGCGCCUAAGCCGAUACCAGAAACGCGGUGCGUCGCACGAUUAACUAGGAAAGUGAUGUUUUCCCUUGGCAGCGGGACCUGUGAG [theeternabot_exclusion_KL_Theo_B_11] | 119 | 116 | 134 | 133 | 135
GCAGUCAAUCAACCACGAAAGUGGAUGGAUACCAGCCCGAAACCGGGCCCUUGGCAGCCAGUGAUGUUGGAAGACUGCUUUAAAA [#SwitchBubble 15 #K4Late] | 974 | 256 | 607 | 219 | 337
GUAUGUGGAAACACGUACUUGUAUCCUAGGAAGGAUAUGCGGAAACGCAGAAGGUCCACCGGCGAGUUUAUCCAGUGAUGUUGGA [Ex FMN A 10] | 260 | 275 | 274 | 318 | 248
AUGACUCAAUAGUGAGUGAUGUUCACUGGACGAGGACCGGUACGGCCGCCACUCGAGAGUGGUGGACACUGUGUCACUGAGUCAU [Tryp A Ex t1] | 180 | 166 | 154 | 194 | 496
GUGGCGGGCCAAGGAUAUAUUUUGGAGUGAUGUUGUUCAUUUAUUUGAGCUAGUGAUGUUGGUCGAAUAGAAGGUGGCCCGCCAC [whbob_Ex_FMNB__2th220] | 69.9 | 27.2 | 52.8 | 44.7 | 45.8
UGGAGUUGACGAAAAGUCAACUCCUGAGAAGGAGCGGACGAAAGUCCAGGUAGGUCGCUCACUACCAGUGAUGUUGGUACUUGAA | 276 | 293 | 259 | 428 | 185
UUUUAAAUAUCUGAUACCAGAGCGAAUAUAUGUAGUGAUGUUAUAUACAAAAUAAAUAAGCUCCCUUGGCAGCAGUAUUAAUUUU [Astros-ExyTheB#?#ED14.66] | 1020 | 829 | 919 | 961 | 968
ACGACGCAUAGUGAUACCAGCAUUAUAUGAGUGAUGUUCUACCUAAAAUGGUAAUAAUUAUGCCCUUGGCAGCACUAUGCGUCAG [KL-SSTheoB3] | 340 | 400 | 409 | 501 | 247
GGCAUGGUGACGCGGCUGCCAUACGCUUGGGAGGAUAUGUUUCGUGACAGAAGGCCCAGUGAUGUUGGGUCUGUUCAAAAGGACU [Arisus] | 659 | 160 | 170 | 169 | 150
GUAGGAUGAGGAGGAGGAUGAAAUACUGAAGGAGCGCAGAGAAAUGCAGGUAGGUCGCGGUAAGGAAGUAUAGUGAUGUUAUAUA [#07 K4 Arginine A Same State] | 414 | 367 | 664 | 755 | 449
AAGCAGUCACUCGACACCAUCGAAGAUGGGCGAGGACCGGUACGGCCGCCACUCGGAGUGAUGUUCUGAUGACUGCAAAAUAAAA [MatMod 9 - Jieux - Exclusion - Tryptophan A] | 99.9 | 60.1 | 86.3 | 158 | 75.6
GGCUAGACUUAGCUAGGUACAUAAUACGAUACCAGUCUAGAAAUAGACCCUUGGCAGCGUAGGCAGUGAUGUUGCCACUAGCUGA [Theo B SS t7] | 104 | 144 | 114 | 144 | 113
UGAUACCAGACUGAUACCAGCGAGUGAUGUUUGUUGAUCAUAAGCAGUCAAAGACUGCUUUGCCCUUGGCAGCAGUCUGGUAUCU [#11 K4 Theophylline B Exclusion] | 871 | 565 | 838 | 334 | 600
UGGGCUGCCUGAGGAUAUAGAGACGAGUGAUGUUCGUGGAUAAGAGCCAGUGAUGUUGGGUUAUUUCUAGAAGGCGGGCGAACUU [Exclusion FMN B GF8] | 105 | 104 | 120 | 129 | 115
